The test system of series [1] is HeLa Kyoto. The series is described as follows: solubility in G1/S (NP-40 vs SDS abundance) (log2 ratio); higher = more soluble. Conditions: cell cycle stage: G1/S.
Series [2] relates to HeLa Kyoto. In words: melting temperature (median over replicates), in situ; higher = more thermally stable.
In series [3] the test system is HeLa Kyoto. In words: solubility change mitosis vs G1/S (difference of NP-40 vs SDS log2 ratios) (log2 ratio difference); higher = more soluble in mitosis.
The test system of series [4] is HeLa Kyoto. In words: thermal stability score vs G1/S (z-score of summed log2 fold changes over temperatures); higher = more thermally stable than in G1/S.
The mark [5] stands for this setting: cell cycle stage: early G1 (4.5 h after nocodazole release).
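Throughout, for melting temperature (median over replicates), in situ: HeLa Kyoto cells synchronized by double thymidine or nocodazole block, proteins quantified by TMT10plex mass spectrometry, three independent biological replicates.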
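Throughout, for solubility change mitosis vs G1/S (difference of NP-40 vs SDS log2 ratios): synchronized HeLa Kyoto cells (double thymidine block for G1/S, nocodazole release for mitosis), protein amounts in NP-40 versus SDS lysates quantified by mass spectrometry, three biological replicates.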
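Throughout, for solubility in G1/S (NP-40 vs SDS abundance): HeLa Kyoto cells arrested at G1/S by double thymidine block, proteins quantified by TMT10plex mass spectrometry in mild NP-40 versus SDS extracts, three biological replicates.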
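Throughout, for thermal stability score vs G1/S (z-score of summed log2 fold changes over temperatures): synchronized HeLa Kyoto cells, proteins quantified by TMT10plex mass spectrometry, three biological replicates, mitosis taken 0.5 h after nocodazole release, G1/S directly after double thymidine block.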

For “METLESELTCPICLELFEDPLLLPCAHSLCFNCAHRILVSHCATNESVESITAFQCPTCRHVITLSQRGLDGLKRNVTLQNIIDRFQKASVSGPNSPSETRRERAFDANTMTSAEKVLCQFCDQDPAQDAVKTCVTCEVSYCDECLKATHPNKKPFTGHRLIEPIPDSHIRGLMCLEHEDEKVNMYCVTDDQLICALCKLVGRHRDHQVAALSERYDKLKQNLESNLTNLIKRNTELETLLAKLIQTCQHVEVNASRQEAKLTEECDLLIEIIQQRRQIIGTKIKEGKVMRLRKLAQQIANCKQCIERSASLISQAEHSLKENDHARFLQTAKNITERVSMATASSQVLIPEINLNDTFDTFALDFSREKKLLECLDYLTAPNPPTIREELCTASYDTITVHWTSDDEFSVVSYELQYTIFTGQANVVSLCNSADSWMIVPNIKQNHYTVHGLQSGTKYIFMVKAINQAGSRSSEPGKLKTNSQPFKLDPKSAHRKLKVSHDNLTVERDESSSKKSHTPERFTSQGSYGVAGNVFIDSGRHYWEVVISGSTWYAIGLAYKSAPKHEWIGKNSASWALCRCNNNWVVRHNSKEIPIEPAPHLRRVGILLDYDNGSIAFYDALNSIHLYTFDVAFAQPVCPTFTVWNKCLTIITGLPIPDHLDCTEQLP [MID1]”, the “solubility in G1/S (log2)” value in the series on HeLa Kyoto [1] was -0.197. Also, the melting temperature in the series on HeLa Kyoto [2] (cell cycle stage: G1/S) and in the series on HeLa Kyoto [2] (cell cycle stage: mitosis) was 50.6 °C throughout. Moreover, the “solubility change mitosis (log2)” value with HeLa Kyoto [3] is -0.0991. For the same sequence, the thermal stability score in the series with HeLa Kyoto [4] (setting [5]) is -0.257; in the series on HeLa Kyoto [4] (cell cycle stage: mitosis), -0.0362.
For the sequence “MAEPVGKRGRWSGGSGAGRGGRGGWGGRGRRPRAQRSPSRGTLDVVSVDLVTDSDEEILEVATARGAADEVEVEPPEPPGPVASRDNSNSDSEGEDRRPAGPPREPVRRRRRLVLDPGEAPLVPVYSGKVKSSLRLIPDDLSLLKLYPPGDEEEAELADSSGLYHEGSPSPGSPWKTKLRTKDKEEKKKTEFLDLDNSPLSPPSPRTKSRTHTRALKKLSEVNKRLQDLRSCLSPKPPQGQEQQGQEDEVVLVEGPTLPETPRLFPLKIRCRADLVRLPLRMSEPLQSVVDHMATHLGVSPSRILLLFGETELSPTATPRTLKLGVADIIDCVVLTSSPEATETSQQLQLRVQGKEKHQTLEVSLSRDSPLKTLMSHYEEAMGLSGRKLSFFFDGTKLSGRELPADLGMESGDLIEVWG [NFATC2IP]”, the “solubility in G1/S (log2)” value in the series on HeLa Kyoto [1] is 0.318. The melting temperature with HeLa Kyoto [2] (cell cycle stage: G1/S) was 48.7 °C; in the series with HeLa Kyoto [2] (cell cycle stage: mitosis), 51.5 °C. Also, in the series with HeLa Kyoto [3], the “solubility change mitosis (log2)” value is -0.0384. The thermal stability score turned out to be 2.45 with HeLa Kyoto [4] (setting [5]) and 4.3 with HeLa Kyoto [4] (cell cycle stage: mitosis).
For the sequence “MGDHAWSFLKDFLAGGVAAAVSKTAVAPIERVKLLLQVQHASKQISAEKQYKGIIDCVVRIPKEQGFLSFWRGNLANVIRYFPTQALNFAFKDKYKQLFLGGVDRHKQFWRYFAGNLASGGAAGATSLCFVYPLDFARTRLAADVGKGAAQREFHGLGDCIIKIFKSDGLRGLYQGFNVSVQGIIIYRAAYFGVYDTAKGMLPDPKNVHIFVSWMIAQSVTAVAGLVSYPFDTVRRRMMMQSGRKGADIMYTGTVDCWRKIAKDEGAKAFFKGAWSNVLRGMGGAFVLVLYDEIKKYV [SLC25A4]”, the “solubility in G1/S (log2)” value with HeLa Kyoto [1] was -0.352. Further, the results for the melting temperature in the series on HeLa Kyoto [2] (cell cycle stage: G1/S) and with HeLa Kyoto [2] (cell cycle stage: mitosis) were 58.1 °C and 56.4 °C, respectively. For the same sequence, the “solubility change mitosis (log2)” value in the series on HeLa Kyoto [3] is -0.117. Further, the thermal stability score in the series with HeLa Kyoto [4] (setting [5]) was -2.08; in the series on HeLa Kyoto [4] (cell cycle stage: mitosis) it was -1.11.
As to “MIDSSKKQQQGFPEILTAGDFEPLKEKECLEGSNQKSLKEVLQLRLQQRRTREQLVDQGIMPPLKSPAAFHEQIKSLERARTENFLKHKIRSRPDRSELVRMHILEETFAEPSLQATQMKLKRARLADDLNEKIAQRPGPMELVEKNILPVDSSVKEAIIGVGKEDYPHTQGDFSFDEDSSDALSPDQPASQESQGSAASPSEPKVSESPSPVTTNTPAQFASVSPTVPEFLKTPPTADQPPPRPAAPVLPTNTVSSAKPGPALVKQSHPKNPNDKHRSKKCKDPKPRVKKLKYHQYIPPDQKGEKNEPQMDSNYARLLQQQQLFLQLQILSQQKQHYNYQTILPAPFKPLNDKNSNSGNSALNNATPNTPRQNTSTPVRKPGPLPSSLDDLKVSELKTELKLRGLPVSGTKPDLIERLKPYQEVNSSGLAAGGIVAVSSSAIVTSNPEVTVALPVTTLHNTVTSSVSTLKAELPPTGTSNATRVENVHSPLPISPSPSEQSSLSTDDTNMADTFTEIMTMMSPSQFLSSSPLRMTNNEDSLSPTSSTLSNLELDAAEKDRKLQEKEKQIEELKRKLEQEQKLVEVLKMQLEVEKRGQQQRPLEAQPSAPGHSVKSDQKHGSLGSSIKDEASLPDCSSSRQPIPVASHAVGQPVSTGGQTLVAKKAVVIKQEVPVGQAEQQSVVSQFYVSSQGQPPPAVVAQPQALLTTQTAQLLLPVSIQGSSVTSVQLPVGSLKLQTSPQAGMQTQPQIATAAQIPTAALASGLAPTVPQTQDTFPQHVLSQPQQVRKVFTNSASSNTVLPYQRHPAPAVQQPFINKASNSVLQSRNAPLPSLQNGPNTPNKPSSPPPPQQFVVQHSLFGSPVAKTKDPPRYEEAIKQTRSTQAPLPEISNAHSQQMDDLFDILIKSGEISLPIKEEPSPISKMRPVTASITTMPVNTVVSRPPPQVQMAPPVSLEPMGSLSASLENQLEAFLDGTLPSANEIPPLQSSSEDREPFSLIEDLQNDLLSHSGMLDHSHSPMETSETQFAAGTPCLSLDLSDSNLDNMEWLDITMPNSSSGLTPLSTTAPSMFSADFLDPQDLPLPWD [MKL2]”, in the series with HeLa Kyoto [1], the “solubility in G1/S (log2)” value was found to be 0.208. The melting temperature in the series on HeLa Kyoto [2] (cell cycle stage: G1/S) was 52.5 °C; in the series on HeLa Kyoto [2] (cell cycle stage: mitosis), 53 °C. Further, the “solubility change mitosis (log2)” value in the series on HeLa Kyoto [3] was -0.304. The values for the thermal stability score in the series with HeLa Kyoto [4] (setting [5]) and with HeLa Kyoto [4] (cell cycle stage: mitosis) were 1.45 and 3.81, respectively.
As to “MAVLLETTLGDVVIDLYTEERPRACLNFLKLCKIKYYNYCLIHNVQRDFIIQTGDPTGTGRGGESIFGQLYGDQASFFEAEKVPRIKHKKKGTVSMVNNGSDQHGSQFLITTGENLDYLDGVHTVFGEVTEGMDIIKKINETFVDKDFVPYQDIRINHTVILDDPFDDPPDLLIPDRSPEPTREQLDSGRIGADEEIDDFKGRSAEEVEEIKAEKEAKTQAILLEMVGDLPDADIKPPENVLFVCKLNPVTTDEDLEIIFSRFGPIRSCEVIRDWKTGESLCYAFIEFEKEEDCEKAFFKMDNVLIDDRRIHVDFSQSVAKVKWKGKGGKYTKSDFKEYEKEQDKPPNLVLKDKVKPKQDTKYDLILDEQAEDSKSSHSHTSKKHKKKTHHCSEEKEDEDYMPIKNTNQDIYREMGFGHYEEEESCWEKQKSEKRDRTQNRSRSRSRERDGHYSNSHKSKYQTDLYERERSKKRDRSRSPKKSKDKEKSKYR [PPIL4]”, in the series on HeLa Kyoto [1], the “solubility in G1/S (log2)” value is -0.23. Besides, the melting temperature in the series with HeLa Kyoto [2] (cell cycle stage: G1/S) is 49.2 °C; with HeLa Kyoto [2] (cell cycle stage: mitosis), 50.3 °C. Moreover, the “solubility change mitosis (log2)” value with HeLa Kyoto [3] amounted to 0.0472. Also, the thermal stability score is 1.3 with HeLa Kyoto [4] (setting [5]) and 1.99 in the series on HeLa Kyoto [4] (cell cycle stage: mitosis).
As for “MEGESTSAVLSGFVLGALAFQHLNTDSDTEGFLLGEVKGEAKNSITDSQMDDVEVVYTIDIQKYIPCYQLFSFYNSSGEVNEQALKKILSNVKKNVVGWYKFRRHSDQIMTFRERLLHKNLQEHFSNQDLVFLLLTPSIITESCSTHRLEHSLYKPQKGLFHRVPLVVANLGMSEQLGYKTVSGSCMSTGFSRAVQTHSSKFFEEDGSLKEVHKINEMYASLQEELKSICKKVEDSEQAVDKLVKDVNRLKREIEKRRGAQIQAAREKNIQKDPQENIFLCQALRTFFPNSEFLHSCVMSLKNRHVSKSSCNYNHHLDVVDNLTLMVEHTDIPEASPASTPQIIKHKALDLDDRWQFKRSRLLDTQDKRSKADTGSSNQDKASKMSSPETDEEIEKMKGFGEYSRSPTF [FAM175A]”, the “solubility in G1/S (log2)” value in the series with HeLa Kyoto [1] is 0.0226. The sequence further had a melting temperature with HeLa Kyoto [2] (cell cycle stage: mitosis) of 57.3 °C. Besides, in the series on HeLa Kyoto [3], the “solubility change mitosis (log2)” value was -0.057. For the same sequence, the values for the thermal stability score with HeLa Kyoto [4] (setting [5]) and in the series with HeLa Kyoto [4] (cell cycle stage: mitosis) were -2.44 and -2.5, respectively.
